Results taken from patent US8445240B2, “Termite enzymes and uses thereof for in vitro conversion of lignin-containing materials to fermentable products” (University of Florida Research Foundation, Inc., priority 2009, dated 2013).
Entries after “also recorded” stand apart in the source; their conditions may differ. Each block holds one molecule with its values, some of them ahead of it.

How the values were obtained:
RfLac6 = assay: Recombinant laccase Lac6 inhibition and enhancement, 2,6-DMP oxidation; format: biochemical, Reticulitermes flavipes; conditions: 1 mM 2,6-DMP, pH 7.5
recombinant RfBGluc-1 = assay: Inhibition of recombinant RfBGluc-1; format: biochemical, Reticulitermes flavipes; conditions: 25° C., sodium acetate 0.1M pH 7, 2 mM p-nitrophenyl-B-D-glucopyranoside
Procedure: Assays were conducted at 25° C. in sodium acetate buffer (0.1M, pH 7) using 2 mM p-nitrophenyl-B-D-glucopyranoside as the substrate.

[1] = test system: R. flavipes worker gut esterases; assay: Gut esterase activity toward naphthyl esters, native PAGE and colorimetric microplate assays; format: biochemical, Reticulitermes flavipes; conditions: foregut/salivary gland, midgut, hindgut
Procedure: Dissections, protein preparation, centrifugation protocols, and protein assays: All manipulations were performed on ice. For tissue localization studies, 25 termite worker guts were removed and dissected into the three regions of foregut/salivary gland, midgut and hindgut. Each gut region preparation was homogenized using a Tenbroeck glass homogenizer in potassium phosphate (0.1M, pH 7.6), and then centrifuged for 15 min at 14,000×g and 4° C. The supernatant was saved for assays and the pellet discarded.
Gut esterase activity toward naphthyl esters with varying carbon chain lengths: Activities toward different naphthyl ester substrates were investigated in different regions of the termite gut using native PAGE, as above, the results being shown in FIGS. 4 and 5. […].
. Differences in activity between α-naphthyl butyrate and acetate were not as evident on native PAGE as in activity assays. Thus, the majority/greatest diversity of gut esterase activity in R. flavipes is located in the midgut, and that activity is greatest toward the 3-carbon ester naphthyl propionate. […]

[2] = substrate: COc1cc(/C=C/C(=O)O)cc(OC)c1O; assay: purified protein, by the assay type; conditions: other: RfLacA
[3] = substrate: Oc1ccccc1O; assay: purified protein, by the assay type; conditions: other: RfLacA
[4] = substrate: COc1cccc(OC)c1O; assay: purified protein, by the assay type; conditions: other: RfLacA; substrate concentration providing ½ maximal activity
[5] = substrate: O=[N+]([O-])c1ccc(O[C@@H]2O[C@H](CO)[C@@H](O[C@@H]3O[C@H](CO)[C@@H](O)[C@H](O)[C@H]3O)[C@H](O)[C@H]2O)cc1; assay: Activity of recombinant RfBGluc-1 towards synthetic nitrophenol substrates, kinetic microplate assay; format: biochemical, Reticulitermes flavipes; conditions: other: synthetic NP substrates; read kinetically at 420 nm; mean ± standard error, 3-5 replicates; pH 6.0
Procedure: (§1) All initial characterization assays took place in 0.1 M sodium acetate buffer (pH 6) using 2 μL of recombinant enzyme preparation (=1.58 μg protein per assay) in a total reaction volume of 250 μL. Synthetic p-nitrophenol substrates (Table 1) were tested in direct kinetic assays using a microplate reader. Reactions were initiated by adding 248 μL assay buffer to 2 μL protein. Assays were read at 420 nm every 20 sec for 5 min to yield mean velocity data in mOD/min. Specific activity was determined with the p-nitrophenol extinction coefficient of 0.6605 mM^−1 cm^−1. All results were averaged from three independent replicates, each conducted in triplicate.

[6] = substrate: O=[N+]([O-])c1ccc(O[C@@H]2O[C@H](CO)[C@@H](O[C@@H]3O[C@H](CO)[C@@H](O[C@@H]4O[C@H](CO)[C@@H](O[C@@H]5O[C@H](CO)[C@@H](O)[C@H](O)[C@H]5O)[C@H](O)[C@H]4O)[C@H](O)[C@H]3O)[C@H](O)[C@H]2O)cc1; assay: as above; format: biochemical, Reticulitermes flavipes; conditions: other: synthetic NP substrates; read kinetically at 420 nm; mean ± standard error, 3-5 replicates; pH 6.0
Procedure: as §1

[7] = substrate: O=[N+]([O-])c1ccc(O[C@@H]2O[C@H](CO)[C@@H](O[C@@H]3O[C@H](CO)[C@@H](O[C@@H]4O[C@H](CO)[C@@H](O)[C@H](O)[C@H]4O)[C@H](O)[C@H]3O)[C@H](O)[C@H]2O)cc1; assay: as above; format: biochemical, Reticulitermes flavipes; conditions: other: synthetic NP substrates; read kinetically at 420 nm; mean ± standard error, 3-5 replicates; pH 6.0
Procedure: as §1

[8] = substrate: O=[N+]([O-])c1ccccc1O[C@@H]1OC[C@@H](O)[C@H](O)[C@H]1O; assay: as above; format: biochemical, Reticulitermes flavipes; conditions: other: synthetic NP substrates; read kinetically at 420 nm; mean ± standard error, 3-5 replicates; pH 6.0
Procedure: as §1

[9] = substrate: C[C@H]1O[C@@H](Oc2ccc([N+](=O)[O-])cc2)[C@H](O)[C@@H](O)[C@H]1O; assay: as above; format: biochemical, Reticulitermes flavipes; conditions: other: synthetic NP substrates; read kinetically at 420 nm; mean ± standard error, 3-5 replicates; pH 6.0
Procedure: as §1

[10] = substrate: O=[N+]([O-])c1ccccc1O[C@@H]1O[C@H](CO)[C@@H](O)[C@H](O)[C@H]1O; assay: as above; format: biochemical, Reticulitermes flavipes; conditions: other: synthetic NP substrates; read kinetically at 420 nm; mean ± standard error, 3-5 replicates; pH 6.0
Procedure: as §1

[11] = substrate: O=[N+]([O-])c1ccc(O[C@@H]2O[C@H](CO)[C@@H](O)[C@H](O)[C@H]2O)cc1; assay: as above; format: biochemical, Reticulitermes flavipes; conditions: other: synthetic NP substrates; read kinetically at 420 nm; mean ± standard error, 3-5 replicates; pH 6.0
Procedure: as §1

[12] = substrate: OC[C@H]1O[C@@H](O[C@H]2[C@H](O)[C@@H](CO)OC(O)[C@@H]2O)[C@H](O)[C@@H](O)[C@@H]1O; assay: Activity of recombinant RfBGluc-1 towards natural substrates, endpoint glucose detection assay; format: biochemical, Reticulitermes flavipes; conditions: other: natural substrates; endpoint at 505 nm, glucose detection reagent; mean ± standard error
Procedure: (§2) Natural carbohydrate substrates (Table 2) were tested in endpoint assays in which color development was enabled using 439-90901 glucose-mutarose detection reagent (Wako Chemical; Richmond, Va.). Assays were conducted in 125 μL for 5 min at room temperature as described above and stopped with the addition of 125 μL glucose detection reagent. After 1 min, the absorbance was read at 505 nm.

[13] = substrate: OCc1ccccc1O[C@@H]1O[C@H](CO)[C@@H](O)[C@H](O)[C@H]1O; assay: as above; format: biochemical, Reticulitermes flavipes; conditions: other: natural substrates; endpoint at 505 nm, glucose detection reagent; mean ± standard error
Procedure: as §2

[14] = Glucose release from pine sawdust by recombinant enzymes and mixtures; format: biochemical; conditions: 2% w/v, 18 hrs, 37° C., pH 7
Procedure: All reactions were performed in 0.1 M sodium acetate buffer containing 10 mM calcium chloride (pH 7). The two feedstock substrates were pine sawdust (=lignin+cellulose+hemicellulose) and beechwood xylan (=lignin+hemicellulose). Feedstocks were tested at 2% w/v (10 mg in 0.5 mL buffer). Reactions were run for 18 hrs at 37° C. with shaking at 220 rpm in vented 1.5 mL plastic tubes.
Protein volumes used per assay were 10 μL of each of the Cell-1, β-glucosidase, and Laccase 6 recombinant protein preparations. These loading volumes provided 8.5, 7.9 and 2.0 μg of each protein, respectively, per reaction. The storage buffer for Cell-1 and β-glucosidase was 0.1 M sodium acetate, 0.15 M sodium chloride, and 0.5 M calcium chloride (pH 5.8). The storage buffer for Laccase 6 was 0.1M boric acid, phosphoric acid, and acetic acid (pH 7.0).
Reactions were stopped after 18 hours by the addition of 10 μL of 0.2 Methylene-diamine tetra-acetic acid and centrifuged for 5 min at 16,000×g. Glucose detection was performed in triplicate on 125 μL aliquots of each reaction supernatant. The entire experiment was replicated three times. Glucose release was measured using the Autokit Glucose reagent kit (Wako Chemical, Richmond, Va.) at a volume of 125 μL per determination. Glucose was quantified based on absorbance at 505 nm relative to glucose standard curves. Standard curves were prepared in eight serial dilutions downward from 0.6 mM in sodium acetate-calcium chloride reaction buffer.

[15] = substrate concentration providing ½ maximal activity

Procedure for Cell-1: Thermal stability tests were conducted using 1.5% CMC in 100 mM sodium phosphate at the optimal pH of 7. Temperature-cofactor studies were performed using 1.5% CMC dissolved in 100 mM sodium phosphate (pH 7) alone, plus 4 mM EDTA (final concentration), or plus 10 mM calcium chloride (final concentration). Pre-incubations took place for 0-5 days at 25° C. or 0-60 min at 60° C. or 70° C.; reactions were terminated by the combination of adding stop solution and boiling for 10 min, and then assays were read at 25° C.
Calcium as a cofactor in β-1,4-endoglucanase Cell-1 hydrolytic activity and temperature stability: The effects of calcium on recombinant Cell-1 activity were investigated using calcium chloride as a calcium source and EDTA as a potential calcium chelator.

Molecule: O=C(O)CN(CCN(CC(=O)O)CC(=O)O)CC(=O)O [EDTA, ethylenediaminetetraacetate]
- effect on Cell-1 CMC endoglucanase activity (Cell-1; incubations over a 5-day period at about 25° C.): slightly inhibitory
- effect on Cell-1 temperature stability (Cell-1; pre-incubation at 60° C. and 70° C., 0-60 min): rapidly reduced temperature stability; also recorded: reduces temperature stability
- effect on RfLac6 activity (RfLac6; at concentrations as low as 0.01 mM): completely inhibited

- concentration up to which RfLac6 activity is enhanced, inhibitory above (RfLac6): ≤ 10 mM
Molecule: O=C(O)CS [TGA, thioglycolic acid]

Molecule: OC[C@@H]1[C@@H](O[C@@H]2O[C@H](CO)[C@@H](O)[C@H](O)[C@H]2O)[C@H](O)[C@@H](O)c2nccn21 [cellobioimidazole (CBI), cellobioimidazole]
- inhibition of recombinant RfBGluc-1 (recombinant RfBGluc-1): concentration-dependent inhibition

- gut esterase activity toward the substrate [1]: lowest esterase staining activity
Molecule: CCCCCCCC(=O)Oc1cccc2ccccc12 [α-naphthyl caprylate]

- gut esterase activity toward the substrate [1]: significantly greatest activity
Molecule: CCC(=O)Oc1cccc2ccccc12 [α-naphthyl propionate]

Molecule: fluoromethyl cellobiose [fluoromethyl cellobiose (FMCB)]
- inhibition of recombinant RfBGluc-1 (recombinant RfBGluc-1): concentration-dependent inhibition

B1: RfLacA (Reticulitermes flavipes) (protein)
chain: TSVLLNSYLQPNDDIDRNTYLLNAKSNNCARICNGTEAPKICYYQWTIENYVTLSEACDNCPLNVTACYNAQCITADGYERSILSVNRKLPGPSIEVCLRDRVIVDITNNMAGRTTSIHWHGVFQKGSQYMDGVPMVTQCTIHEGDTFRYDFIANNEGTHFWHSHDGLQKLDGVTGNLVVRVPKNFDPNGQLYDFDLPEHKIFISDWLHLSADDHFPGLRATNPGQDANSFLINGRGRTLIGTQSTNTPYAQINVQWGRRYRLRIVGSLCTVCPTQLTIDGHKITVIATDGNSVAPARVDSLIIYSGERYDVVLEATNTEGSYWIHLKGLATCVGSRVYQLGVLQYENTTTNKLHALTPDPGYDGFPQPASYRVLNPENASCSIGSTGLCVTQLANSDPVPRDILTQLPDINYLLQFGFETFDSRSFFKAYDRYFVSPFLELLSSTVNNISFVSPPSPLLSQRGDVPDDILCPTGADGLPQCPGGNSYCTCVHVIKIKLGALVQIILSDQSPKSDLNHPFHIHGHAFYVLGMGQYAAGQTAQDLLNSLKSNVSSVSPAPVLKDTVAVPSGGYAIIKFRPKNPGYWFLHCHFLYHVATGMSVVLQVGETSDYPPTPDGFPKCGSFTPPVNTN
- Vmax [2]: 0.247 µM/min
- Km [2, 15]: 5022 µM
- Vmax [3]: 15.4 µM/min
- Km [3, 15]: 17527 µM
- Km [4]: 34888 µM
- Vmax [4]: 0.26 µM/min

B2: recombinant RfBGluc-1 β-glucosidase (Reticulitermes flavipes) (protein)
chain: ADVDNETLFTFPEDFKLGAATASYQIEGGWNADGKGVNIWDTLTHERSQLVVDKSSGDVADDSYHLYKEDVKLLKNMGAQLYRFSISWARILPEGHDNKVNQAGIEYYNKLIDELLDNGIEPMVTMYHWDLPQTLQDLGGWPNRELAKYSENYARVLFQNFGDRVKLWLTFNEPLTFMDAYASETGMAPSIDTPGIGDYLAAHTVILAHANIYRMYEREFKEEQKGKVGIALNIHWCEPVTNSTKDVEACERYQQFNLGIYAHPIFSVEGDYPSVLKARVDANSVTEGYTTSRLPKFTTEEVDFIRGTHDFLGLNFYTAVTGADGVEGEPPSRYRDMGAITSQDPDWPESASSWLRVVPWGFRKELNWIANEYGNPPIYITENGFSDYGGLNDTDRVLYYTEHLKEMLKAIHIDEVNVVGYTAWSLVDNFEWLRGYTERFGIHEVNFNDPSRPRVPKESAKVLTEIFNTRRIPERFLD
- Km [5]: 1560 ± 40 µM
- Vmax [5]: 13.8 µmol/min/mg
- Km [6]: 590 ± 10 µM
- Vmax [6]: 16.6 µmol/min/mg
- Km [7]: 1630 ± 500 µM
- Vmax [7]: 22.6 µmol/min/mg
- Km [8]: 7570 ± 1170 µM
- Vmax [8]: 8.77 µmol/min/mg
- Km [9]: 900 ± 70 µM
- Vmax [9]: 12.6 µmol/min/mg
- Km [10]: 1580 ± 190 µM
- Vmax [10]: 4.2 µmol/min/mg
- Km [11]: 1660 ± 70 µM
- Vmax [11]: 22.9 µmol/min/mg
- Km [12]: 630 ± 20 µM
- Vmax [12]: 218 µmol/min/mg
- Km [13]: 34300 ± 14750 µM
- Vmax [13]: 278 µmol/min/mg

- glucose release from pine sawdust (in words) [14]: No glucose release was detectable
B3: β-glucosidase: recombinant R. flavipes β-glucosidase, amino acid sequence SEQ ID NO.: 6 (protein)
chain: MRLQTVCFVIFVTAVFGADVDNETLFTFPEDFKLGAATASYQIEGGWNADGKGVNIWDKLTHERSQLVVDKSSGDVADDSYHLYKEDVKLLKNMGAQLYRFSISWARILPEGHDNKVNQAGIEYYNKLIDELLDNGIEPMVTMYHWDLPQTLQDLGGWPNRELAKYSENYARVLFQNFGDRVKLWLTFNEPLTFMDAYASETGMAPSIDTPGIGDYLAAHTVILAHANIYRMYEREFKEEQKGKVGIALNIHWCEPVTNSTKDVEACERYQQFNLGIYAHPIFSVEGDYPSVLKARVDANSVTEGYTTSRLPKFTTEEVDFIRGTHDFLGLNFYTAVTGADGVEGEPPSRYRDMGAITSQDPDWPQSASSWLRVVPWGFRKELNWIANEYGNPPIYITENGFSDYGGLNDTDRVLYYTEHLKEMLKANHIDEVNVVGYTTWRPVDNFEWLRGYTERFGIHEVNFNDPSRPRVPKESAKVLTEIFNTRRIPERFLD
modifications: Reticulitermes flavipes; amino acid sequence beta-glucosidase “contig 771”
